Target: m971 scFv with short (GGGGS) linker
Assay: SEC

- stoichiometry N: 2
Substance: m971 scFv with short (GGGGS) linker
